B1: HKU9 wild-type RBD (other)
chain: SYCTPPYSVLQDPPQPVVWRRYMLYDCVFDFTVVVDSLPTHQLQCYGVSPRRLASMCYGSVTLDVMRINETHLNNLFNRVPDTFSLYNYALPDNFYGCLHAFYLNSTAPYAVANRFPIKPGGRQSNSAFIDTVINAAHYSPFSYVYGLAVITLKPAAGSKLVCPVAN

Experiments:
HKU9 wild-type RBD [1] = biological target: B1; test: ELISA, antigen coated
HKU9 wild-type RBD [2] = biological target: B1; test: ELISA, antigen coated, binder 1 µg/mL, chemiluminescence
[3] = biological target: T1, ACE2-hFc (AC2-H 5257, Acrobiosystems) (human, UniProt Q9BYF1 18-740); test: ELISA, antigen coated
T1 construct: also called ACE2-Fc

GCCDC1 wild-type RBD [4] = biological target: T2, GCCDC1 wild-type RBD (coronavirus GCCDC1 strain (Nobecovirus …)); test: ELISA, antigen coated
Zaria wild-type RBD [5] = biological target: T3, Zaria wild-type RBD (coronavirus Zaria strain (Hibecovirus …)); test: ELISA, antigen coated
Hp wild-type RBD [6] = biological target: T4, Hp wild-type RBD (coronavirus Hp strain (Hibecovirus …)); test: ELISA, antigen coated
GCCDC1 wild-type RBD [7] = biological target: T2, GCCDC1 wild-type RBD; test: ELISA, antigen coated, binder 1 µg/mL, chemiluminescence
Zaria wild-type RBD [8] = biological target: T3, Zaria wild-type RBD; test: as above
Hp wild-type RBD [9] = biological target: T4, Hp wild-type RBD; test: as above
SARS-CoV-2 wild-type RBD = SARS-CoV-2 wild-type RBD (SARS-CoV-2, UniProt P0DTC2 319-541); test: as above

T1 sequence (Q9BYF1 18-740 limits assumed): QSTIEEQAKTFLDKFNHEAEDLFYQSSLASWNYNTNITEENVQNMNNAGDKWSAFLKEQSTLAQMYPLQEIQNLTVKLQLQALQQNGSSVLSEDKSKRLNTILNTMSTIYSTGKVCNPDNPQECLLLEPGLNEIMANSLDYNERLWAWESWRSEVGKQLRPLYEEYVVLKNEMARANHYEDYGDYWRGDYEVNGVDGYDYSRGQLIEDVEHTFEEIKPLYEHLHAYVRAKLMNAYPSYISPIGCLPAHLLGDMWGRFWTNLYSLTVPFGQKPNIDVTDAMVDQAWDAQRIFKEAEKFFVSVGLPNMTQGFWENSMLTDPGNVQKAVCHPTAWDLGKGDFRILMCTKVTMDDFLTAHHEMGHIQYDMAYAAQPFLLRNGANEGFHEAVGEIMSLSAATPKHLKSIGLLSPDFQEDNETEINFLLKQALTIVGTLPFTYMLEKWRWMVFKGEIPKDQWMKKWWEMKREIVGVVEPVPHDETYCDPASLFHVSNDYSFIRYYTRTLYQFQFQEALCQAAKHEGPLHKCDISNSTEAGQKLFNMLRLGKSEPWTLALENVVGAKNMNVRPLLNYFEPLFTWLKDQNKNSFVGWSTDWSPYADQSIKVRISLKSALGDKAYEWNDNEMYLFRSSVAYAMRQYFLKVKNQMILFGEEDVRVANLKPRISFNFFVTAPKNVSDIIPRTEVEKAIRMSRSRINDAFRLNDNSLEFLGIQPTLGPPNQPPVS

Row | Binder | binding result (HKU9 wild-type RBD [1]) | signal intensity (HKU9 wild-type RBD [2]) | binding result [3] | binding result (GCCDC1 wild-type RBD [4]) | binding result (Zaria wild-type RBD [5]) | binding result (Hp wild-type RBD [6]) | signal intensity (GCCDC1 wild-type RBD [7]) | signal intensity (Zaria wild-type RBD [8]) | signal intensity (Hp wild-type RBD [9]) | signal intensity (SARS-CoV-2 wild-type RBD)
1 | REGN10987 (antibody, V domains shown) VH: QVQLVESGGGVVQPGRSLRLSCAASGFTFSNYAMYWVRQAPGKGLEWVAVISYDGSNKYYADSVKGRFTISRDNSKNTLYLQMNSLRTEDTAVYYCASGSDYGDYLLVYWGQGTLVTVSS VL: QSALTQPASVSGSPGQSITISCTGTSSDVGGYNYVSWYQQHPGKAPKLMIYDVSKRPSGVSNRFSGSKSGNTASLTISGLQSEDEADYYCNSLTSISTWVFGGGTKLTVLR | no binding (tested: 1 µg/mL) | 1120 | – | – | – | – | – | – | – | –
2 | B1 | – | – | no binding (tested: 1 µg/mL) | – | – | – | – | – | – | –
3 | REGN10933 (antibody, V domains shown) VH: QVQLVESGGGLVKPGGSLRLSCAASGFTFSDYYMSWIRQAPGKGLEWVSYITYSGSTIYYADSVKGRFTISRDNAKSSLYLQMNSLRAEDTAVYYCARDRGTTMVPFDYWGQGTLVTVSS VL: DIQMTQSPSSLSASVGDRVTITCQASQDITNYLNWYQQKPGKAPKLLIYAASNLETGVPSRFSGSGSGTDFTFTISGLQPEDIATYYCQQYDNLPLTFGGGTKVEIKR | no binding (tested: 1 µg/mL) | 943 | – | – | – | – | – | – | – | –
4 | BD23 (antibody, V domains shown) VH: QVQLVQSGSELKKPGASVKVSCKASGYTFTSYAMNWVRQAPGQGLEWMGWINTNTGNPTYAQGFTGRFVFSLDTSVSTAYLQISSLKAEDTAVYYCARPQGGSSWYRDYYYGMDVWGQGTTVTVSS VL: not shown | no binding (tested: 1 µg/mL) | 803 | – | – | – | – | – | – | – | –
5 | CV30 (antibody, V domains shown) VH: EVQLVESGGGLIQPGGSLRLSCAASGVIVSSNYMSWVRQAPGKGLEWVSVIYSGGSTYYADSVKGRFTISRDNSKNTLYLQMNSLRAEDTAVYYCARDLDVSGGMDVWGQGTTVTVSS VL: not shown | no binding (tested: 1 µg/mL) | 583 | – | no binding (tested: 1 µg/mL) | no binding (tested: 1 µg/mL) | no binding (tested: 1 µg/mL) | 130 | 100 | 150 | 921000
6 | CR3022 (antibody, V domains shown) VH: QMQLVQSGTEVKKPGESLKISCKGSGYGFITYWIGWVRQMPGKGLEWMGIIYPGDSETRYSPSFQGQVTISADKSINTAYLQWSSLKASDTAIYYCAGGSGISTPMDVWGQGTTVTVSS VL: DIQMTQSPSSLSASVGDRVTITCRASQSIYSALNWYQQKPGKAPKLLIYAASALQSGVPSRFSGSGSGTDFTLTISSLQPEDFATYYCQQTDIHPYTFGQGTKVEIKR | no binding (tested: 1 µg/mL) | 433 | – | no binding (tested: 1 µg/mL) | no binding (tested: 1 µg/mL) | no binding (tested: 1 µg/mL) | 100 | 330 | 100 | 1.07e+06

From patent US20240255507A1 (SYSMEX, published 2024)
